Measured values from the supplement of paper PMC10724198.
± gives the standard deviation of the averaged measurements.

Columns and labels:
Saccharomyces cerevisiae [1] = experiment: protein stability index of tFT-peptide fusion (C-terminal peptide) (PSI (0-1 scale)); higher = more stable (slower turnover); conditions: genetic background: wild type; temperature: 30 C
Saccharomyces cerevisiae [2] = experiment: as above
Experimental: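 MPS profiling in S. cerevisiae of the tFT-X12 degron library: putative degron peptides plus stable controls, 12 aa, fused to the C-terminus of a sfGFP-mCherry timer. Cells are FACS-sorted into 8 mCherry/sfGFP bins and deep-sequenced. PSI runs from 0 (unstable) to 1 (stable). Backgrounds are wild type, das1Δ and doa10Δ at 30 °C, and wild type, das1Δ, cdc34-1 and cdc53-1 at 37 °C; 2-3 technical replicates each.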

[3] = genetic background: cdc34-1, temperature: 37 C
[4] = genetic background: cdc53-1, temperature: 37 C
[5] = genetic background: das1 deletion, temperature: 30 C
[6] = genetic background: das1 deletion, temperature: 37 C
[7] = genetic background: doa10 deletion, temperature: 30 C
[8] = genetic background: wild type, temperature: 30 C
[9] = genetic background: wild type, temperature: 37 C
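Further: PSI is a weighted mean of sequencing reads over stability bins, variants kept only with over 10 reads, mCherry proximal and sfGFP distal, peptide attached via GGGS linker.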

Sequence | protein stability index (Saccharomyces cerevisiae [1]) | protein stability index (Saccharomyces cerevisiae [2]; [3]) | protein stability index (Saccharomyces cerevisiae [2]; [4]) | protein stability index (Saccharomyces cerevisiae [2]; [5]) | protein stability index (Saccharomyces cerevisiae [2]; [6]) | protein stability index (Saccharomyces cerevisiae [2]; [7]) | protein stability index (Saccharomyces cerevisiae [2]; [8]) | protein stability index (Saccharomyces cerevisiae [2]; [9])
VVFSLLLWLFIS | 0.216 ± 0.029 | 0.256 ± 0.022 | 0.405 ± 0.024 | 0.316 ± 0.047 | 0.47 ± 0.0075 | 0.161 ± 0.003 | 0.168 ± 0.018 | 0.194 ± 0.0057
VVGLSLLFSGGV | 0.694 ± 0.021 | 0.687 ± 0.011 | 0.755 ± 0.021 | 0.644 ± 0.015 | 0.7583 ± 0.0016 | 0.662 ± 0.025 | 0.6572 ± 0.0032 | 0.727 ± 0.0093
VVQCRFPTPCVV | 0.476 ± 0.013 | 0.486 ± 0.035 | 0.485 ± 0.033 | 0.372 ± 0.03 | 0.5335 ± 0.0022 | 0.349 ± 0.0096 | 0.376 ± 0.027 | 0.496 ± 0.022
VVSLGGWCLYIY | 0.412 ± 0.025 | 0.423 ± 0.061 | 0.4605 ± 0.0016 | 0.416 ± 0.032 | 0.461 ± 0.012 | 0.385 ± 0.023 | 0.333 ± 0.019 | 0.416 ± 0.0093
VVVFGWIGYLYL | 0.327 ± 0.071 | 0.366 ± 0.028 | 0.499 ± 0.05 | 0.311 ± 0.044 | 0.511 ± 0.021 | 0.282 ± 0.019 | 0.288 ± 0.044 | 0.482 ± 0.062
VVVHFVLVCSTS | 0.289 ± 0.038 | 0.0899 ± 0.0074 | 0.237 ± 0.057 | 0.141 ± 0.026 | 0.284 ± 0.0084 | 0.116 ± 0.011 | 0.13 ± 0.024 | 0.271 ± 0.014
VWFLLFVVWCGS | 0.309 ± 0.031 | 0.212 ± 0.01 | 0.282 ± 0.024 | 0.217 ± 0.022 | 0.384 ± 0.0055 | 0.186 ± 0.021 | 0.204 ± 0.034 | 0.316 ± 0.0071
VWLAWCIVGGLG | 0.428 ± 0.03 | 0.472 ± 0.0083 | 0.5494 ± 0.0026 | 0.386 ± 0.024 | 0.5441 ± 0.0026 | 0.352 ± 0.015 | 0.369 ± 0.028 | 0.523 ± 0.0062
VWVAWLGGAILA | 0.267 ± 0.021 | 0.149 ± 0.021 | 0.188 ± 0.012 | 0.2 ± 0.029 | 0.29 ± 0.0052 | 0.174 ± 0.024 | 0.194 ± 0.022 | 0.272 ± 0.0045
VYCCVRSLRVAI | 0.496 ± 0.0097 | 0.553 ± 0.0082 | 0.677 ± 0.047 | 0.471 ± 0.035 | 0.6347 ± 0.0019 | 0.395 ± 0.022 | 0.428 ± 0.023 | 0.5746 ± 0.0014
VYVRYYVRVVVI | 0.115 ± 0.012 | 0.0256 ± 0.0012 | 0.0406 ± 0.00046 | 0.0781 ± 0.04 | 0.167 ± 0.024 | 0.0369 ± 0.0049 | 0.046 ± 0.016 | 0.0659 ± 0.0096
WCFFFVGCCCFG | 0.479 ± 0.0056 | 0.557 ± 0.044 | 0.59 ± 0.03 | 0.462 ± 0.034 | 0.5249 ± 0.004 | 0.479 ± 0.0084 | 0.481 ± 0.031 | 0.537 ± 0.013
WCFGSLLIRFSL | 0.458 ± 0.024 | 0.416 ± 0.057 | 0.446 ± 0.016 | 0.453 ± 0.04 | 0.5548 ± 0.0037 | 0.5049 ± 0.00066 | 0.411 ± 0.0096 | 0.516 ± 0.013
WDLYFSVVYRVV | 0.114 ± 0.0017 | 0.35 ± 0.04 | 0.484 ± 0.017 | 0.403 ± 0.015 | 0.491 ± 0.017 | 0.0435 ± 0.021 | 0.0544 ± 0.0073 | 0.093 ± 0.0024
WFFPVSPPVMAS | 0.288 ± 0.013 | 0.181 ± 0.027 | 0.1945 ± 0.00051 | 0.202 ± 0.032 | 0.3 ± 0.013 | 0.175 ± 0.004 | 0.211 ± 0.026 | 0.265 ± 0.0075
WFLFVLCAWGFF | 0.135 ± 0.0012 | 0.295 ± 0.026 | 0.339 ± 0.0033 | 0.263 ± 0.013 | 0.374 ± 0.039 | 0.263 ± 0.014 | 0.241 ± 0.012 | 0.3042 ± 0.00084
WFLLSLSSFVSS | 0.427 ± 0.015 | 0.427 ± 0.03 | 0.415 ± 0.11 | 0.363 ± 0.023 | 0.469 ± 0.0061 | 0.358 ± 0.037 | 0.351 ± 0.0038 | 0.4555 ± 0.00088
WFSMSRLWVFYS | 0.217 ± 0.082 | 0.415 ± 0.043 | 0.637 ± 0.018 | 0.619 ± 0.028 | 0.729 ± 0.045 | 0.1047 ± 0.00079 | 0.0847 ± 0.027 | 0.106 ± 0.024
WFSRCVSLGLCW | 0.4176 ± 0.0036 | 0.2808 ± 0.0017 | 0.3093 ± 0.0024 | 0.29 ± 0.019 | 0.398 ± 0.018 | 0.274 ± 0.012 | 0.302 ± 0.029 | 0.363 ± 0.017
WFSVRQLVFVSG | 0.218 ± 0.014 | 0.119 ± 0.011 | 0.146 ± 0.018 | 0.163 ± 0.028 | 0.236 ± 0.0094 | 0.124 ± 0.0015 | 0.163 ± 0.019 | 0.218 ± 0.0069
